Fewer inactive variants are shown than the library holds.
B1: TPR 5TU (parent)
chain: GGAUCUUCUCGAUCUAACAAAAAAGACAAAUCUGCCACAAAGCUUGAGAGCAUCUUCGGAUGCAGAGGCGGCAGCCUUCGGUGGCGCGAUAGCGCCAACGUUCUCAACUAUGACACGCAAAACGCGUGCUCCGUUGAAUGGAGUUUAUCAUG

Variants of: B1
Test: polymerase ribozyme fitness, log enrichment relative to wild type (log ratio); higher = more active; in vitro selection for triplet polymerase activity
Summary of the method: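 Mutant libraries of both subunits of a heterodimeric triplet polymerase ribozyme were PCR-built, transcribed, and selected once in triplicate, with frozen incubation at −7 °C and capture of gel-excised extended constructs on streptavidin beads before RT-PCR. Illumina sequencing of input and output libraries was filtered to genotypes with ≥10 input reads and ≥1 read per output. Fitness is the logarithm of genotype enrichment over wild-type enrichment, using inverse-variance-weighted replicate averages. The logarithm is base 2.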

Row | Variant | polymerase ribozyme fitness (log ratio)
1 | U4G U56G U144A | -1.19
2 | C5G C10G A26C C93U A106G G140U | ≤ -4.2
3 | U4A A22C G48U C75G G84A | ≤ -4.2
4 | U4A U55A A64C | ≤ -4.2
5 | C5A A17U G83A U146G | -0.599
6 | C5G C10A G11A A30U A49C C93U G136A | ≤ -4.2
7 | U4C C85A | -1.34
8 | U4C G11U U53C | -2.27
9 | U4C C5U A23C A47C C79A C85G U90C G117U G152U | ≤ -4.2
10 | C5U A30G A52U C76G G94A C118U U148A | ≤ -4.2
11 | C5G U55A G70C C85A C96U U151G | ≤ -4.2
12 | U6A A60C A142G | -3.03
13 | U4A G92A G141A | -3.96
14 | A3U G48C C51U C57U C95A A115C | ≤ -4.2
15 | C5U C10G C35U C75G U102G A107U C118A | ≤ -4.2
16 | C5U C38G A66U G94C | ≤ -4.2
17 | C5G C36A G58A A73G C85U | ≤ -4.2
18 | C5U A16C G81A U82A G126C | -0.899
19 | U4A A121G A137C C149U | -4.16
20 | C5A C57G C75U G86A A91C | -4.01
21 | A3U G46C U77C G86U A98U A121U U127A | -4.08

Row | Variant | polymerase ribozyme fitness (log ratio)
22 | C5U A22U C85A U135A | -0.0168
23 | A3U G67U A107U | ≤ -4.2
24 | U4G A12G A22U U53A C72G G100A U111G C125U | ≤ -4.2
25 | A3U G58A C96G | -1.09
26 | U6A C14U A41U G48U | -3.87
27 | C5A C27U U33G C79A | ≤ -4.2
28 | U4G A97G C103G | -3.15
29 | A3U U15G A19C A39C U44G U55A C57U A60G C63A G84A A110U A120C | ≤ -4.2
30 | C5G A19U A91G A113G | ≤ -4.2
31 | C5U A23G C32A C57G G59A C87G C95A U134C | ≤ -4.2
32 | C5U A12C A40C U61A C95U | -2.18
33 | U4A A147C | -0.789
34 | C5A A24C G48U G65C C87U C99U A121G | ≤ -4.2
35 | C5A G94U C95A C123A U135C | -3.89
36 | C5A A16G G50U C51A A89U U134G A137G G140A A142C A147C | ≤ -4.2
37 | U4A A19C | 0.332
38 | C5U C18U C76G C105U U148A | ≤ -4.2
39 | U4G C38U C93G | -2.52
40 | C5A U7C G92C U139G | -1.27
41 | U4A A20C A28C A29G C87A G141U | -4.08
42 | A3U C57U C87U A113C A119G | -3.73

Row | Variant | polymerase ribozyme fitness (log ratio)
43 | C5U G46A U61G | -4.13
44 | A3U C105G | -1.75
45 | U4C A23C A37G U53A | ≤ -4.2
46 | C5U A20U C57U G68A C72U G92A | ≤ -4.2
47 | C5A A26C A30U A52C G70A G86C | ≤ -4.2
48 | U4C C96A | -0.253
49 | C5U A52U A64C G70C C85A C116G A122U C125U A150G | ≤ -4.2
50 | U4G C14G C76G | ≤ -4.2
51 | U6A A21U C76A G86U | -2.79
52 | C5G A24U G81C | -0.313
53 | U4C G86A | -0.918
54 | C5G C32G C72U A73G A91G A119U G141A | ≤ -4.2
55 | U4C U6G G74C G80C G92U C103G A106U | ≤ -4.2
56 | U4A C8G U13G A24C C96U | ≤ -4.2
57 | U4A A24U U31G C54U G84A | -1.15
58 | U4C U15C A22C A29U C43G U44A U45G C57U G59U C93U | ≤ -4.2
59 | C5G C85A C116A | 0.0205
60 | C5G A19U A37U U45A U61A C87U | ≤ -4.2
61 | U4A A19C A89U C96U A138G U146G | ≤ -4.2
62 | C5G U55G C79G C85U U130G | ≤ -4.2
63 | C5G A12G G83A G94A G141C | -4.19

Row | Variant | polymerase ribozyme fitness (log ratio)
64 | U4A A22U A40G U145A | -3.05
65 | U4A C8U A16U A40C U53A C57U C87A A97U U145G | ≤ -4.2
66 | C5A G11A G84A C95A C103U C116U | -1.5
67 | C5G A41C U55A G58A A60G | -1.54
68 | C5U C85G | -1.7
69 | C5U A66G C87U | ≤ -4.2
70 | C5A A89G C95G C132U | -3.03
71 | U4C U56G C63U C93G | -3.11
72 | C5G A21C A29U U82A G94A G136C U151C | ≤ -4.2
73 | C5G U6G U7G C14G A28C A30C G50C C51G A89G C93G G94U C105U C116U G143U | ≤ -4.2
74 | U6A C10A U31A A49C U53A C76G G81A G92A A106G G117A | ≤ -4.2
75 | U6A A28G A73G C93G C99A C131A | -4.19
76 | U4C A52U U82G C96A | -3.56
77 | U4C C43U C85U G133A G141U | ≤ -4.2
78 | A3U C93U | -1.81
79 | U4C C85A C95G A115G | -3.75
80 | C5U C8G A12G A19U U55G C87A C96G A147C | ≤ -4.2
81 | U6A C18U A20C A22C U44C U55A C87A | ≤ -4.2
82 | U4A C10U A26U U31G A39G C57A C85A U90G A113C | ≤ -4.2
83 | C5U A73G C85G | -0.907
